Where two headings read alike, the source gives them in different places. Starred links: 1 amine or outer side, 2 acyl side, 3 side chain; linkers in the order of their positions; H or OH if unused. Positions of bridges follow the written chain, without caps; N, C: chain ends. Non-standard residues stand in square brackets, D forms with d. Primed or numbered codes have the meaning given here. PyrS2(3) = (S)-3-amino-1-((pent-4-en-1-yloxy)carbonyl)pyrrolidine-3-carboxylic acid, stapling residue, C=CCCCOC(=O)N1CC[C@@](N[*:1])(C(=O)[*:2])C1; PyrS2″ = (S)-3-amino-1-((pent-4-en-1-yloxy)carbonyl)pyrrolidine-3-carboxylic acid (stapling residue), C=CCCCOC(=O)N1CC[C@@](N[*:1])(C(=O)[*:2])C1; B5(24) = 2-amino-2-(pent-4-en-1-yl)hept-6-enoic acid, 2,2-bis(4-pentenyl)glycine (stitching residue), C=CCCCC(CCCC=C)(N[*:1])C(=O)[*:2]; B5(4) = 2,2-bis(4-pentenyl)glycine = 2-amino-2-(pent-4-en-1-yl)hept-6-enoic acid (stitching residue), C=CCCCC(CCCC=C)(N[*:1])C(=O)[*:2]; B5(20) = 2-amino-2-(pent-4-en-1-yl)hept-6-enoic acid = bis(4-pentenyl)glycine, stitching residue, C=CCCCC(CCCC=C)(N[*:1])C(=O)[*:2]; PyrS2 = (S)-3-amino-1-((pent-4-en-1-yloxy)carbonyl)pyrrolidine-3-carboxylic acid, C=CCCCOC(=O)N1CC[C@@](N[*:1])(C(=O)[*:2])C1; F2PipNva = (S)-2-amino-5-(4,4-difluoropiperidin-1-yl)pentanoic acid, O=C([C@H](CCCN1CCC(F)(F)CC1)N[*:1])[*:2]; B5(3) = 2,2-bis(4-pentenyl)glycine (stitching residue), C=CCCCC(CCCC=C)(N[*:1])C(=O)[*:2]; B5″ = 2,2-bis(4-pentenyl)glycine, stitching residue, C=CCCCC(CCCC=C)(N[*:1])C(=O)[*:2]; Phe(F5) = N[C@@H](Cc1c(F)c(F)c(F)c(F)c1F)C(=O)O; Nva(5-morpholino) = N[C@@H](CCCN1CCOCC1)C(=O)O; Phe(3-COOH) = N[C@@H](Cc1cccc(C(=O)O)c1)C(=O)O; 2F3MeF = Cc1cccc(C[C@H](N[*:1])C(=O)[*:2])c1F; Phe(3-CN) = N#Cc1cccc(C[C@H](N)C(=O)O)c1; Phe(4-CN) = N#Cc1ccc(C[C@H](N)C(=O)O)cc1; Phe(2-Cl) = N[C@@H](Cc1ccccc1Cl)C(=O)O; Bta = N[C@@H](Cc1csc2ccccc12)C(=O)O; αAllylPro = C=CC[C@@]1(C(=O)O)CCCN1; tBuAla = CC(C)(C)C[C@H](N)C(=O)O; 3Thi = N[C@@H](Cc1ccsc1)C(=O)O; Cha = N[C@@H](CC1CCCCC1)C(=O)O; S8 = C=CCCCCCC[C@](C)(N)C(=O)O; hSer = N[C@@H](CCO)C(=O)O
Tests used:
[1] = biological target: T1, full-length beta-Catenin (Uniprot ID P35222) (Homo sapiens (Human), UniProt P35222 1-781); assay: FP competition: full-length beta-catenin 10 nM + 5FAM-TCF4(10-53) 10 nM
T1 construct: also called bCat; B-Catenin
T1 sequence: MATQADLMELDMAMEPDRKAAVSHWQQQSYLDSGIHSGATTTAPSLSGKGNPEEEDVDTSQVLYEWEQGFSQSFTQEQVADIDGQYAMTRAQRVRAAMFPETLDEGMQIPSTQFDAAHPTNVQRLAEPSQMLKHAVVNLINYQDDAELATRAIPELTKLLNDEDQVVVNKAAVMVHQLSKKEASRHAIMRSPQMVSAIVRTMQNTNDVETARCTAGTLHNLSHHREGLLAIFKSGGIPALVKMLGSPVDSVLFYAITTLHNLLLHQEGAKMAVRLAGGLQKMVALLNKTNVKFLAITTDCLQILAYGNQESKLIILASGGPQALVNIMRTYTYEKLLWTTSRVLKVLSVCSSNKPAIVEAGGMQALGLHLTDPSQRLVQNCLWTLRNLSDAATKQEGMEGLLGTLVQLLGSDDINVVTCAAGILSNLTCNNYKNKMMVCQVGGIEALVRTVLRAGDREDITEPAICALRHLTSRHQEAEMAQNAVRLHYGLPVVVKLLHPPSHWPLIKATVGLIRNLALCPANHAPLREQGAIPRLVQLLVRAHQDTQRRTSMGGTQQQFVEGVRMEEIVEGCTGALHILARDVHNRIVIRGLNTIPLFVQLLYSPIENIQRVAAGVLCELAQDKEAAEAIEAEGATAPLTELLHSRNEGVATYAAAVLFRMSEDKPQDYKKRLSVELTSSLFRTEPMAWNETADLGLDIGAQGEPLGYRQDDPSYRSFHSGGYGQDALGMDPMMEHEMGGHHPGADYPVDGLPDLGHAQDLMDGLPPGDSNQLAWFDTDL
Protocol: The plate was incubated protected from light for 60 minutes at 20° C. prior to read. Reads were performed on a CLARIOstar plate reader (BMG Labtech) in duplicate, and data were fitted to a 1:1 binding model with hill slope using an in-house script. All provided concentrations are final concentrations.

B-cat-Halo [2] = biological target: T2, B-cat-Halo (UniProt P35222 1-781); assay: cell-based or functional assay
T2 sequence (looked up): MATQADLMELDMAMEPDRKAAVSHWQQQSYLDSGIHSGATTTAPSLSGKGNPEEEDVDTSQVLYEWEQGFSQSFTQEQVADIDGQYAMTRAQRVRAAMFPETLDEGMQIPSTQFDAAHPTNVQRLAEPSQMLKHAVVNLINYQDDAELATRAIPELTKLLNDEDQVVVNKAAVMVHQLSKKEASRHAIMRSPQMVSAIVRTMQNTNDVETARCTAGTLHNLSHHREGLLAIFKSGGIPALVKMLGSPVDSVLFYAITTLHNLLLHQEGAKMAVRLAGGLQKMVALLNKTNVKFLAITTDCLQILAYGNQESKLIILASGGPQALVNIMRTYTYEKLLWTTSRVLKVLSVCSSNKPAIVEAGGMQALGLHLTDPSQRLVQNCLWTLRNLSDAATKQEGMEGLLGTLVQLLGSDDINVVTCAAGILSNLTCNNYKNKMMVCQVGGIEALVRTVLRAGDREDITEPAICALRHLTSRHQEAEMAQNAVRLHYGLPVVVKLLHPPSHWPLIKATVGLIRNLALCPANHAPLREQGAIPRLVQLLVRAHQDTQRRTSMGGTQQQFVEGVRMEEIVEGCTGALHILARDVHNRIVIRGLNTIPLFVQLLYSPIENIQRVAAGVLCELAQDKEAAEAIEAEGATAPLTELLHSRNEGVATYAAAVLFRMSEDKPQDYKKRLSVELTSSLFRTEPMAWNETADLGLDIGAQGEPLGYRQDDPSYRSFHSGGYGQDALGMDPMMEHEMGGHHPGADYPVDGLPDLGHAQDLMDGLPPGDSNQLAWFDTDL

[3] = biological target: T3, B-cat-Halo (beta-catenin HaloTag construct expressed in HEK293 cells) (UniProt P35222 1-781); assay: cell-based or functional assay
T3 sequence (looked up): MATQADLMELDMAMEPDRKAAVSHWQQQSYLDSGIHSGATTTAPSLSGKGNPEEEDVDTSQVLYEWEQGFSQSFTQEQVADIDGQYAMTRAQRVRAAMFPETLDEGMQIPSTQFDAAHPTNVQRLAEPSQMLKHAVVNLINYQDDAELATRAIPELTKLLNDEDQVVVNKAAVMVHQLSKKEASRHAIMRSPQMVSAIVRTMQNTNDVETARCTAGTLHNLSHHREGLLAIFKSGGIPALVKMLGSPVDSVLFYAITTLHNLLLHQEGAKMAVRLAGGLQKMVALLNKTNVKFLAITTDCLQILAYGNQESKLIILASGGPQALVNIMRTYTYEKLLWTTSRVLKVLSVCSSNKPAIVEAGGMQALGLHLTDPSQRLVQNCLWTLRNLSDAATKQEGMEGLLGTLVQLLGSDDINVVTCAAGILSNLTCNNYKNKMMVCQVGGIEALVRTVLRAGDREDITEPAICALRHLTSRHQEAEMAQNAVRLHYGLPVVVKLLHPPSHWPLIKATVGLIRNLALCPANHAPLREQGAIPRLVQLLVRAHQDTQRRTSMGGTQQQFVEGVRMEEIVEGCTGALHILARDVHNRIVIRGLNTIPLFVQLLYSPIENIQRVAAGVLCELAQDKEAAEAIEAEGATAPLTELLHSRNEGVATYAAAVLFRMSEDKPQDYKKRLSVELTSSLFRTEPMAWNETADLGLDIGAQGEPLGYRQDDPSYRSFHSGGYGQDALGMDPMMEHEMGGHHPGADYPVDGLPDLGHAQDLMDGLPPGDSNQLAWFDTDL

B-cat-Halo [4] = biological target: T4, B-cat-Halo (UniProt P35222 1-781); assay: cell-based or functional assay; remark: listed apart in the source
T4 sequence (looked up): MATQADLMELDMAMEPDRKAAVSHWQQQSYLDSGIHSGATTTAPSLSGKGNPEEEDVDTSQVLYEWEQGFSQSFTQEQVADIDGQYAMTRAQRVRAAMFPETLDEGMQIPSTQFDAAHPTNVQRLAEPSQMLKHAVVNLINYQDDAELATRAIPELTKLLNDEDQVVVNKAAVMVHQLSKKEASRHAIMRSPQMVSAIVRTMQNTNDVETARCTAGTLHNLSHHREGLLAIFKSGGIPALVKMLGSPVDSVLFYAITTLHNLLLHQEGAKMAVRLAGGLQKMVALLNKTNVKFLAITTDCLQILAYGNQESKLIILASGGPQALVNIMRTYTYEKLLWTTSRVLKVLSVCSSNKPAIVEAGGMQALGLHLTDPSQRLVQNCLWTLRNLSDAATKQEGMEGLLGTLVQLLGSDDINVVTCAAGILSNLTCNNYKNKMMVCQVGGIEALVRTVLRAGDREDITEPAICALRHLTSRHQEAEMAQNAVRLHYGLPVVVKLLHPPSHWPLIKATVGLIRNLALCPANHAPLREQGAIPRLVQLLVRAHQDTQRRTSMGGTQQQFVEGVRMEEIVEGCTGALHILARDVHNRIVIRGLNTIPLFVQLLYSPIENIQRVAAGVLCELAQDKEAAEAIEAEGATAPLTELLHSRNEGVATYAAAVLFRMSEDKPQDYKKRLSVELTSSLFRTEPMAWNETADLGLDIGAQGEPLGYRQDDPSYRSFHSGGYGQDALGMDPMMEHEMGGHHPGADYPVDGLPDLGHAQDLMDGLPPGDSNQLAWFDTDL

[5] = biological target: T5, full-length beta-Catenin (Uniprot ID P35222) (Homo sapiens (Human), UniProt P35222 1-781); assay: fluorescence polarization competition; full-length beta-catenin with 5FAM-TCF4(10-53) probe as competitor
T5 construct: The assay text says full-length; also called bCat; B-Catenin
T5 sequence: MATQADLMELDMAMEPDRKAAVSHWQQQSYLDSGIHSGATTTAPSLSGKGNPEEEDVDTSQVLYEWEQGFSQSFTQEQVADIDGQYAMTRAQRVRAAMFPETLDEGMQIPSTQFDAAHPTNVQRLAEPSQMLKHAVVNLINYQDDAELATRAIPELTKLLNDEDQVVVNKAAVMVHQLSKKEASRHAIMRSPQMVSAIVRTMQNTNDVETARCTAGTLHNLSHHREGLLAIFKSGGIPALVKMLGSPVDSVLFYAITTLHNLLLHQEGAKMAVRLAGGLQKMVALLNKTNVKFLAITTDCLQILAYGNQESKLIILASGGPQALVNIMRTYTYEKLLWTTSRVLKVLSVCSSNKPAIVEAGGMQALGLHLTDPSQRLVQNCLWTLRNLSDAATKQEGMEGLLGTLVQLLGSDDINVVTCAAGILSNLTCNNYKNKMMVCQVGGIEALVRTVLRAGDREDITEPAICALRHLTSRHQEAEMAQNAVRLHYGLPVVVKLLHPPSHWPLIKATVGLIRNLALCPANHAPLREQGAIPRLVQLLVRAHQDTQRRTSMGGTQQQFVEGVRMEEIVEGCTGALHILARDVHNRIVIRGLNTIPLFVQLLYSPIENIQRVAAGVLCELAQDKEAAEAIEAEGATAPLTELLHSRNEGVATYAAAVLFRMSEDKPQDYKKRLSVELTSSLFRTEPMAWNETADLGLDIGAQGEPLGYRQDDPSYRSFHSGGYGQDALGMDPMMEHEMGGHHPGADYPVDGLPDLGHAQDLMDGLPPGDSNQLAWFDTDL
Method in brief: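 Data fitted to 1:1 binding model with hill slope from duplicate reads taken after 60 minutes at 20° C. in the dark.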

B1: I-527 (peptide)
peptide: XDIXDEAAFQXFXQ
modifications: not fully specified; Ac-PL3-Asp-Ile-B5-Asp-Glu-Ala-Ala-Phe-Gln-S8-2OMeF-BztA-Gln-NH2; stapled by olefin metathesis (PL3-B5 and B5-S8)
IC50 [1]: 0.098 µM

B2: I-508 (peptide)
peptide: Ac-[αAllylPro]DA[B5(20)]DEAAFQ[S8]F[Bta]T-NH2
modifications: staple 1-4, 4-11; also: later-eluting HPLC peak of staple isomers
IC50 [1]: 0.073 µM

B3: I-1608 (peptide)
peptide: Ac-[αAllylPro]D[tBuAla][B5(4)]D[Phe(3-COOH)]AAFL[PyrS2][2F3MeF][Bta][F2PipNva]-NH2
modifications: staple 1-4, 4-11
NanoBRET Abs IC50 (B-cat-Halo [2]): 15.1 µM

B4: I-1186 (peptide)
peptide: Ac-[αAllylPro]D[tBuAla][B5″]DDAAFN[PyrS2(3)][Phe(F5)][Bta]Q-NH2
modifications: staple 1-4, 4-11
NanoBRET Abs IC50 [3]: 23.6 µM

B5: I-1201 (peptide)
peptide: Ac-[αAllylPro]D[tBuAla][B5″]DDAA[Phe(3-CN)]L[PyrS2(3)][3Thi][Bta]Q-NH2
modifications: staple 1-4, 4-11
NanoBRET Abs IC50 [3]: 19.6 µM

B6: I-1137 (peptide)
peptide: Ac-[αAllylPro]D[Cha][B5(24)]DDAAFS[PyrS2″][Phe(2-Cl)][Bta][hSer]-NH2
modifications: staple 1-4, 4-11
NanoBRET Abs IC50 (B-cat-Halo [4]): 12 µM

B7: I-1610 (peptide)
peptide: Ac-[αAllylPro]D[tBuAla][B5(3)]D[Phe(3-COOH)]AAFL[PyrS2][2F3MeF][Bta][Nva(5-morpholino)]-NH2
modifications: staple 1-4, 4-11
NanoBRET Abs IC50 (B-cat-Halo [2]): 4.1 µM

B8: I-602 (peptide)
peptide: XDIXDEAAFQXFXQ
modifications: N-terminal 2PyPrpc cap; PL3 (pos 1), B5 (pos 4), S8 (pos 11) stapled (PL3-B5 and B5-S8); BztA (pos 13); C-terminal NH2
notes: Stapled peptide; also called 2PyPrpc-PL3-Asp-Ile-B5-Asp-Glu-Ala-Ala-Phe-Gln-S8-Phe-BztA-Gln-NH2
IC50 [5]: 3.15 µM

B9: I-1202 (peptide)
peptide: Ac-[αAllylPro]D[tBuAla][B5″]DDAA[Phe(4-CN)]L[PyrS2(3)][3Thi][Bta]Q-NH2
modifications: staple 1-4, 4-11
NanoBRET Abs IC50 [3]: 16.3 µM

Reference: patent publication US20240116985A1 (published 2024)
